According to US8329195B2, “Detoxified pneumococcal neuraminidase and uses thereof” (priority 2007, dated 2012):
Residue numbers refer to the chain shown, from its start. Read-outs that look alike come from different tables or passages of the source.

B1: NanA186: recombinant near-N-terminal NanA fragment from TIGR4, residues 157-342; His-tagged form SEQ ID NO:22 (protein)
chain: EFKPDAKAPAFYNLFSVSSATKKDEYFTMAVYNNTATLEGRGSDGKQFYNNYNDAPLKVKPGQWNSVTFTVEKPTAELPKGRVRLYVNGVLSRTSLRSGNFIKDMPDVTHVQIGATKRANNTVWGSNLQIRNLTVYNRALTPEEVQKRSQLFKRSDLEKKLPEGAALTEKTDIFESGRNGNPNKDG
B2: NanA215: recombinant NanA fragment from TIGR4, residues 347-561, covers 2 of 4 Asp boxes; His-tagged form SEQ ID NO:20 (protein)
chain: RIPALLKTDKGTLIAGADERRLHSSDWGDIGMVIRRSEDNGKTWGDRVTITNLRDNPKASDPSIGSPVNIDMVLVQDPETKRIFSIYDMFPEGKGIFGMSSQKEEAYKKIDGKTYQILYREGEKGAYTIRENGTVYTPDGKATDYRVVVDPVKPAYSDKGDLYKGDQLLGNIYFTTNKTSPFRIAKDSYLWMSYSDDDGKTWSAPQDITPMVKAD
B3: NanB: another S. pneumoniae neuraminidase, 43% homology with NanA (protein, UniProt Q54727 30-697, looked up)
Sialidase B: NELNYGQLSISPIFQGGSYQLNNKSIDISSLLLDKLSGESQTVVMKFKADKPNSLQALFGLSNSKAGFKNNYFSIFMRDSGEIGVEIRDAQKGINYLFSRPASLWGKHKGQAVENTLVFVSDSKDKTYTMYVNGIEVFSETVDTFLPISNINGIDKATLGAVNREGKEHYLAKGSIDEISLFNKAISDQEVSTIPLSNPFQLIFQSGDSTQANYFRIPTLYTLSSGRVLSSIDARYGGTHDSKSKINIATSYSDDNGKTWSEPIFAMKFNDYEEQLVYWPRDNKLKNSQISGSASFIDSSIVEDKKSGKTILLADVMPAGIGNNNANKADSGFKEINGHYYLKLKKNGDNDFRYTVRENGVVYNETTNKPTNYTINDKYEVLEGGKSLTVEQYSVDFDSGSLRERHNGKQVPMNVFYKDSLFKVTPTNYIAMTTSQNRGESWEQFKLLPPFLGEKHNGTYLCPGQGLALKSSNRLIFATYTSGELTYLISDDSGQTWKKSSASIPFKNATAEAQMVELRDGVIRTFFRTTTGKIAYMTSRDSGETWSKVSYIDGIQQTSYGTQVSAIKYSQLIDGKEAVILSTPNSRSGRKGGQLVVGLVNKEDDSIDWKYHYDIDLPSYGYAYSAITELPNHHIGVLFEKYDSWSRNELHLSNVVQYIDLEINDLTK
B4: NanA571: recombinant 571-amino-acid central fragment of TIGR4 NanA, corresponding to residues 230-800 of R6 NanA; His-tagged form SEQ ID NO:18 (protein, listed as Streptococcus pneumoniae)
chain: PTAELPKGRVRLYVNGVLSRTSLRSGNFIKDMPDVTHVQIGATKRANNTVWGSNLQIRNLTVYNRALTPEEVQKRSQLFKRSDLEKKLPEGAALTEKTDIFESGRNGNPNKDGIKSYRIPALLKTDKGTLIAGADERRLHSSDWGDIGMVIRRSEDNGKTWGDRVTITNLRDNPKASDPSIGSPVNIDMVLVQDPETKRIFSIYDMFPEGKGIFGMSSQKEEAYKKIDGKTYQILYREGEKGAYTIRENGTVYTPDGKATDYRVVVDPVKPAYSDKGDLYKGDQLLGNIYFTTNKTSPFRIAKDSYLWMSYSDDDGKTWSAPQDITPMVKADWMKFLGVGPGTGIVLRNGPHKGRILIPVYTTNNVSHLDGSQSSRVIYSDDHGKTWHAGEAVNDNRQVDGQKIHSSTMNNRRAQNTESTVVQLNNGDVKLFMRGLTGDLQVATSKDGGVTWEKDIKRYPQVKDVYVQMSAIHTMHEGKEYIILSNAGGPKRENGMVHLARVEENGELTWLKHNPIQKGEFAYNSLQELGNGEYGILYEHTEKGQNAYTLSFRKFNWEFLSKNLISPTEAN
B5: NanA571_Y752F: NanA571 with tyrosine Y752 converted to phenylalanine (protein)
chain: B4 chain with Y523F
B6: NanA571_E647T: NanA571 with glutamate E647 converted to threonine (protein)
chain: B4 chain with E418T

Columns and labels:
[1] = Sialidase (neuraminidase) activity of recombinant NanA fragments; type: biochemical
Procedure: The decreased activity of a detoxified neuraminidase or a neuraminidase fragment as compared to non-detoxified neuraminidase can be measured by the assay of Lock, et al. (Microb. Pathog. 4; 33-43, 1988). Using the Lock assay, NanA activity in lysates, serum, or blood can be measured using 2′-(4-methyl-umbelliferyl)-α-D-N-acetylyneuraminic acid as the substrate in a enzyme assay (Lock et al. 1988). Ten microliters of substrate are combined with 10 μL of serum and incubated for 5 minutes at 37° C. The reaction is stopped using 0.5 M sodium carbonate. Neuraminidase activity is measured in terms of the amount of 4-methylumbelliferone (MU) released per minute. MU has an excitation wavelength of 366 nm and an emission wavelength of 445 nm. […] Thus, the detoxified neuraminidase or fragment thereof can have no measurable enzymatic activity as compared to the enzymatic activity of a non-detoxified neuraminidase. Further, the detoxified neuraminidase can have protective antibody eliciting activity similar to the non-detoxified neuraminidase.
Such an assay is described in Berry et al., J. Bacterial 1784854-4860 (1996).

[2] = system: TIGR4 Streptococcus pneumoniae; type: in vivo; details: for protection against nasal carriage / colonization (nasal wash and nasal tissue) / protection from pneumococci reaching (invasion into) the lungs, olfactory bulb, or brain: CBA/N mice, 50 μg intranasal with CTB, TIGR4 challenge, day 7
[3] = NanB at its optimal pH; cited from earlier work
[4] = MUAN assay of neuraminidase activity; type: biochemical; details: MUAN assay at 37° C. at pH 7.0
Description: The total abolishment of activity is consistent with the proposed activities as based on the alignment with structures previously known.

Molecule	sialidase activity of the recombinant protein [1]	protection against nasal carriage / colonization (nasal wash and nasal tissue) [2]	protection from pneumococci reaching (invasion into) the lungs, olfactory bulb, or brain [2]	neuraminidase activity [4]	other results
B1	no sialidase activity	no observed statistically significant protection	did not elicit protection		
B2	no sialidase activity	no observed statistically significant protection	did not elicit protection		
B3					sialidase activity relative to NanA at its pH optimum [3]: about 1/100
B4	active	solid protection		3.9 µmol/min/mg	sialidase activity of the recombinant protein ([1]; listed as rNanA571): enzymatically active; protection against nasal carriage / colonization (nasal wash and nasal tissue) ([2]; listed as rNanA571): elicited protection; in vivo protection to S. pneumoniae challenge ([2]; figure legend FIG. 11): elicited in vivo protection
B5				Neither mutation exhibited any detectable neuraminidase activity	
B6				Neither mutation exhibited any detectable neuraminidase activity	
